Measured values as given in patent US8470556B2, “Nucleic acids that encode antigen binding proteins that bind PAR-2” (Amgen Inc., priority 2007, dated 2013).

Assays:
[1] = biological target: T1, N-terminal PAR-2/Fc (full length and truncated) (Homo sapiens, UniProt P55085); assay: Western blot, binding to uncleaved versus clipped N-terminal PAR-2/Fc; settings: upstream binder binds only full-length PAR-2/Fc
T1 construct: made in house; host or cells: CHO cells (10% FCS for uncleaved; serum-free for clipped)
T1 sequence (P55085 with tags, fused parts or gaps limits assumed): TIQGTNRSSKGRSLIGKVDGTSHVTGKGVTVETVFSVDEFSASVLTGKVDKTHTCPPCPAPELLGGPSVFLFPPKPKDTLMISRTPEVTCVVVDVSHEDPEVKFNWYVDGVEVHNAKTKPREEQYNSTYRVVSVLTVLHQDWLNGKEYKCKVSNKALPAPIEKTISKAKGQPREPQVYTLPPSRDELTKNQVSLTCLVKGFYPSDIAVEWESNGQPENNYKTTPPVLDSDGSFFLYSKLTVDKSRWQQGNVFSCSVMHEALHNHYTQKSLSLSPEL
From the text: N-terminal PAR-2/Fc polypeptide (SEQ ID NO:6) is expressed in suitable mammalian cells such as CHO cells. Expression supernatant from CHO expression cells cultured in serum-free media contain a CHO cell trypsin-like serine protease that cleaves PAR-2/Fc at the activation Arg-Ser bond, generating the “clipped” version of the PAR-2/Fc polypeptide. CHO expression cells cultured in 10% fetal calf serum (which contains normal levels of plasma proteinase inhibitors at concentrations far in excess of the concentration of the CHO cell trypsin-like serine protease) express uncleaved N-terminal PAR-2/Fc in culture supernatants. Both clipped and uncleaved proteins are purified using methods that are suitable for isolation and purification of proteins comprising an Fc regions (for example, using a MabSelect™ resin systems, from GE Healthcare, Piscataway, N.J.)). The resultant purified Fc-constructs are analyzed by amino terminal sequence analysis (Edman degradation), size exclusion chromatrography, absorbance spectral scan, and mass spectroscopy, as needed.
To analyze binding to uncleaved versus cleaved PAR-2, various amounts of purified uncleaved and clipped N-terminal PAR2-Fc are subjected to SDS-PAGE using 8-16% polyacrylamide gradient gels (Novex gels, Invitrogen Life Technologies) in a Tris-Glycine buffer system. Gel lanes containing See Blue standards (Novex, Invitrogen Life Technologies) for molecular weight identification are also included. Following electrophoresis, proteins are transferred from gels onto nitrocellulose membranes using a Novex XCell II Blot Module (Invitrogen Life Technologies). Membranes are blocked with 1:1, Odyssey blocking buffer, OBB, (LI-COR Biosciences):TBS (Tris Buffer Saline) overnight at 4 C with shaking. Antibodies to be analyzed are diluted in 1:1 OBB:TBS at a desired final concentration for 1 hr at room temperature. Membranes are washed extensively with 0.1% Tween 20 in TBS (3-4 changes of 100 ml over ˜1 hr). Membranes are then exposed to the appropriate secondary antibody-Alexa680 (Molecular Probes, Invitrogen Life Technologies) conjugate (goat anti-rabbit IgG, or goat anti-mouse IgG) diluted 1:5000 in 1:1 (OBB:TBS) for 1 hr at room temperature. Membranes are washed as described above, and if desired, analyzed using a LI-COR Odyssey Infrared Imaging System (LI-COR Biosciences).
Several PAR-2 antibodies were tested in different assay formats; Table 2 summarizes the results. IC50 values were determined in a FLIPR assay for Ca2+ mobilization described previously; binding to the upstream region of the cleavage site versus the downstream region of the cleavage site was determined using the Western blot assay described previously.

[2] = biological target: T2, cell surface expressed human PAR-2 (Homo sapiens, UniProt P55085); assay: KinExA binding to cell surface expressed PAR-2; settings: initial analysis, 95% confidence interval of 1.36 to 5.47 nM, N=2 experiments
T2 construct: expressed in transfected cells; host or cells: CHO cells
T2 sequence (P55085 26-397): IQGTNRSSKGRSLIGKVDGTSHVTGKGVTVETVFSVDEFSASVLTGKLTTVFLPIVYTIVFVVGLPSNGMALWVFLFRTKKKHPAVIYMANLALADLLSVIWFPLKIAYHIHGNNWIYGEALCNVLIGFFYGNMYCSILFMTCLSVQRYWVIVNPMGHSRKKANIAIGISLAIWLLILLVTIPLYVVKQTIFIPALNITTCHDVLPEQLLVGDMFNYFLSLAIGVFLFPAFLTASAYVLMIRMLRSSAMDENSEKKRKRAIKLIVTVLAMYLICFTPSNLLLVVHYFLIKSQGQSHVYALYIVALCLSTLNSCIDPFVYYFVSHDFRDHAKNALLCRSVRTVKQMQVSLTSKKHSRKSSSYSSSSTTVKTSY
From the text: This example describes the analysis of the binding properties of PAR-2 antigen-binding proteins to cell surface expressed PAR-2 utilizing a Kinetic Exclusion Assay which measures binding events in solution phase and can be used to calculate KD, Kon and Koff (KinExA®; Sapidyne Instruments, Boise, Id.), substantially as described previously by Xie et. al. J. Imm, Methods 304:1 (2005) and Rathanaswami et. al. Anal. Biochem. 373:52 (2008). Briefly, serial dilutions of cells expressing human PAR-2 (for example, CHO transfectants expressing human PAR-2 at the cell surface, obtainable by transfecting CHO cells with human full length PAR-2 cDNA encoding a polypeptide of SEQ ID NO:2) and control cells (i.e., non-transfected CHO cells) in a modified DMEM medium (phenol red free containing 10% heat inactivated FBS, 0.1 mM MEM non-essential amino acids, 1 mM sodium pyruvate, penicillin-streptomycin-glutamine, and 0.025% (w/w) sodium azide) are incubated with set amounts of antibody for 24 to 36 hours at 4 C with rotation. […] The free mAb is measured by KinExA® using the appropriate capture beads and Cy5-conjugated anti-human secondary antibodies, as described by Rathanaswami et al. Biochem Biophys Research Commun: 1004 (2005). […]
The KD of certain PAR-2 antibodies was determined in this manner.

Binding to Cleavage Site Up stream [1]: xxx | Kd [2]: 3.39 nM
B1: 1B5: anti-PAR-2 monoclonal antibody; heavy SEQ ID NO: 13, light SEQ ID NO: 15 (antibody, listed as Homo sapiens)
heavy: EVQLVQSGAEVKKSGESLKISCKGSGYSFSNYWIGWVRQMPGKGLEWMGIIYPGDSDTRYSPSFQGQVTISADKSIRTAYLQWSSLKASDTAMYYCARHKGITGTTFYYDYGMDVWGQGTTVTVSS
light: SYELTQPPSVSVSPGQTARITCSGEALPKQYASWYQQKPGQAPVLVIYRDTERPSGIPERFSGSSSGTTVTLTISGVQAEDEADYYCQSADSNGAYVFGTGTRVTVL
